Positions count from the first letter of the chain named.
How the values were obtained:
LRRK2 = molecular target: T1, LRRK2 (Rattus norvegicus, UniProt F1LNJ1); assay: 10-day oral dosing study in rats, pT73-Rab10 and pS935-LRRK2 western blot; format: in vivo; details: for pT73-Rab10, Brain / pT73-Rab10, Lung / pS935-LRRK2, Brain / pS935-LRRK2, Lung: rats, daily oral 10 days, mean with SEM; for pT73-Rab10, Brain / pT73-Rab10, Lung: normalized to actin and vehicle control group; for pS935-LRRK2, Brain / pS935-LRRK2, Lung: normalized to vinculin and vehicle control group
T1 construct: from tissue; host or cells: rat brain and lung (in vivo dosing)
Procedure: Dose-dependent inhibition of pT73-Rab10 was tested in a 10-day oral dosing study in rats. Rats were dosed daily with the LRRK2 Inhibitor B at a dose of 10 mg/kg, 30 mg/kg, or 45 mg/kg. Tissues (brain and lung) were harvested, homogenized and analyzed by western blot. […] Signals from dosed groups were normalized to vehicle control group. Data were presented as mean with SEM.

[1] = molecular target: T2, endogenous phosphorylated Rab10 in human PBMC (Homo sapiens, UniProt P61026); assay: Western blot of human PBMC with anti-pT73-Rab10 antibodies; format: binding; details: for detection of endogenous phosphorylated Rab10 signals in human PBMC by western blot: antibody at 1 ug/ml; for Western blot Human PBMC Ratio of DMSO/LRRK2 inhibitor A (mean ± SEM): band intensity normalized with Actin control for each of DMSO and LRRK2 inhibitor A, antibody 1 ug/ml
T2 construct: Strong endogenous phosphorylated Rab10 or phosphorylated Rab8a in human PBMC; host or cells: human PBMC
T2 sequence (P61026 1-200): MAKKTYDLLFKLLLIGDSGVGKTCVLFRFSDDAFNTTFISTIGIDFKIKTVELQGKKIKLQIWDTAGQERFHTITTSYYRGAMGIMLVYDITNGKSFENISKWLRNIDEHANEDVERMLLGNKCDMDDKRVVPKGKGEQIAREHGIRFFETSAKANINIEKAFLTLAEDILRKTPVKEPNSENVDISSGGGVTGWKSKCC

[2] = molecular target: T3, phosphorylated Rab10 in lysates of HEK cells overexpressing LRRK2 (Homo sapiens, UniProt P61026); assay: Sandwich ELISA (diagnostic), HEK cells overexpressing LRRK2; format: binding; details: for Sandwich ELISA (diagnostic), Ratio: DMSO / LRRK2 inhibitor A RLU; for Sandwich ELISA (diagnostic) HEK cells overexpressing LRRK2, DMSO (RLU mean ± SD): DMSO treated cells; for Sandwich ELISA (diagnostic) HEK cells overexpressing LRRK2, LRRK2 inhibitor A (RLU mean ± SD): cells treated with LRRK2 inhibitor A
T3 construct: expressed in transfected cells; host or cells: HEK cells overexpressing LRRK2
T3 sequence (P61026 1-200): T2 sequence (P61026 1-200)
Procedure: Sandwich ELISA (Diagnostic) with Anti-Phospho-Rab10 Antibody as the Capture Antibody:
ELISA plates were prepared by coating white Nunc MaxiSorp 384 well plates (Thermo Fisher #460372/Sigma #P6491) with capture antibody for 1 hour at room temperature on a shaking platform. The capture antibody was purified anti-phospho-Rab10 clone 19-4 diluted to 1 ug/mL in carbonate-bicarbonate buffer, and 15 uL/well of coating solution was added to the plate before incubation. Plates were then washed 3× with TBST on a BioTek plate washer. For all subsequent blocking/incubation steps, Pierce Starting Block T20 (TBS) was used (Thermo Fisher #37543). Plates were blocked […] in this solution using 80 uL/well and washed 3× as before. Afterwards samples of cell lysates were added (neat with no dilution) using 30 uL/well and incubated 1 hour at room temperature on a shaking platform. After another 3× wash detection antibody (Creative Diagnostics DCABH 13141, or Abcam, ab104859, 2 ug/mL) was added using 30 uL/well. After 60 minute incubation at room temperature and washing 3×, the secondary anti-species conjugate was added (anti-rabbit HRP antibody (Jackson ImmunoResearch 111-035-144) diluted 1:20000 in assay diluent) at 30 uL/well. After a 60 minute incubation, plates were washed 3× as before. The HRP substrate (Supersignal ELISA Femto HRP substrate—Thermo Fisher #37075) was prepared during this time by mixing both components and equilibrating to room temperature. 50 uL/well of substrate was added to plates, which then were covered and briefly incubated for 1-2 minutes on a shaker platform. Afterwards plates were read on the Synergy plate reader to measure relative light units (RLU).
Sandwich ELISA (Diagnostic) with Anti-Rab10 (Total) Antibody as the Capture Antibody:
ELISA plates were prepared by coating white Nunc MaxiSorp 384 well plates (Thermo Fisher #460372/Sigma # P6491) with capture antibody overnight at 4° C. on a shaking platform. The capture antibodies (anti-Rab10 antibody from either Creative Diagnostics, DCABH-13141, or Abcam, ab104859) were diluted to […] (or 1:100 if the concentration not known) in carbonate-bicarbonate buffer, and 15 uL/well of coating solution was added to the plate before incubation. After this plates were washed 3× with TBST on a BioTek plate washer. For all subsequent blocking/incubation steps, Pierce Starting Block (TBS) (no Tween added) was used (Thermo Fisher #37542). Plates were blocked for 1 hour at room temperature in this solution using 80 uL/well and washed 3× as before. Afterwards samples were added (with lysates being diluted 1:20 in the assay diluent) using 30 uL/well and incubated 2 hours at room temperature on a shaking platform. After another 3× wash detection antibodies were added (diluted to 1 ug/mL for purified antibodies or 1:2 for supernatants) using 30 uL/well. After 90 minute incubation at room temperature and washing 3× the secondary anti-species conjugate was added (anti-rabbit HRP antibody (Jackson ImmunoResearch 111-035-144) diluted 1:20000 in assay diluent) at 30 uL/well. After a 45 minute incubation plates were washed 3× as before. The HRP substrate (Supersignal ELISA Femto HRP substrate—Thermo Fisher #37075) was prepared during this time by mixing both components and equilibrating to room temperature. 50 uL/well of substrate was added to plates, which then were covered and briefly incubated for 1-2 minutes on a shaker platform. Afterwards plates were read on the Synergy plate reader to measure relative light units (RLU).

T1 sequence (F1LNJ1 1-2526): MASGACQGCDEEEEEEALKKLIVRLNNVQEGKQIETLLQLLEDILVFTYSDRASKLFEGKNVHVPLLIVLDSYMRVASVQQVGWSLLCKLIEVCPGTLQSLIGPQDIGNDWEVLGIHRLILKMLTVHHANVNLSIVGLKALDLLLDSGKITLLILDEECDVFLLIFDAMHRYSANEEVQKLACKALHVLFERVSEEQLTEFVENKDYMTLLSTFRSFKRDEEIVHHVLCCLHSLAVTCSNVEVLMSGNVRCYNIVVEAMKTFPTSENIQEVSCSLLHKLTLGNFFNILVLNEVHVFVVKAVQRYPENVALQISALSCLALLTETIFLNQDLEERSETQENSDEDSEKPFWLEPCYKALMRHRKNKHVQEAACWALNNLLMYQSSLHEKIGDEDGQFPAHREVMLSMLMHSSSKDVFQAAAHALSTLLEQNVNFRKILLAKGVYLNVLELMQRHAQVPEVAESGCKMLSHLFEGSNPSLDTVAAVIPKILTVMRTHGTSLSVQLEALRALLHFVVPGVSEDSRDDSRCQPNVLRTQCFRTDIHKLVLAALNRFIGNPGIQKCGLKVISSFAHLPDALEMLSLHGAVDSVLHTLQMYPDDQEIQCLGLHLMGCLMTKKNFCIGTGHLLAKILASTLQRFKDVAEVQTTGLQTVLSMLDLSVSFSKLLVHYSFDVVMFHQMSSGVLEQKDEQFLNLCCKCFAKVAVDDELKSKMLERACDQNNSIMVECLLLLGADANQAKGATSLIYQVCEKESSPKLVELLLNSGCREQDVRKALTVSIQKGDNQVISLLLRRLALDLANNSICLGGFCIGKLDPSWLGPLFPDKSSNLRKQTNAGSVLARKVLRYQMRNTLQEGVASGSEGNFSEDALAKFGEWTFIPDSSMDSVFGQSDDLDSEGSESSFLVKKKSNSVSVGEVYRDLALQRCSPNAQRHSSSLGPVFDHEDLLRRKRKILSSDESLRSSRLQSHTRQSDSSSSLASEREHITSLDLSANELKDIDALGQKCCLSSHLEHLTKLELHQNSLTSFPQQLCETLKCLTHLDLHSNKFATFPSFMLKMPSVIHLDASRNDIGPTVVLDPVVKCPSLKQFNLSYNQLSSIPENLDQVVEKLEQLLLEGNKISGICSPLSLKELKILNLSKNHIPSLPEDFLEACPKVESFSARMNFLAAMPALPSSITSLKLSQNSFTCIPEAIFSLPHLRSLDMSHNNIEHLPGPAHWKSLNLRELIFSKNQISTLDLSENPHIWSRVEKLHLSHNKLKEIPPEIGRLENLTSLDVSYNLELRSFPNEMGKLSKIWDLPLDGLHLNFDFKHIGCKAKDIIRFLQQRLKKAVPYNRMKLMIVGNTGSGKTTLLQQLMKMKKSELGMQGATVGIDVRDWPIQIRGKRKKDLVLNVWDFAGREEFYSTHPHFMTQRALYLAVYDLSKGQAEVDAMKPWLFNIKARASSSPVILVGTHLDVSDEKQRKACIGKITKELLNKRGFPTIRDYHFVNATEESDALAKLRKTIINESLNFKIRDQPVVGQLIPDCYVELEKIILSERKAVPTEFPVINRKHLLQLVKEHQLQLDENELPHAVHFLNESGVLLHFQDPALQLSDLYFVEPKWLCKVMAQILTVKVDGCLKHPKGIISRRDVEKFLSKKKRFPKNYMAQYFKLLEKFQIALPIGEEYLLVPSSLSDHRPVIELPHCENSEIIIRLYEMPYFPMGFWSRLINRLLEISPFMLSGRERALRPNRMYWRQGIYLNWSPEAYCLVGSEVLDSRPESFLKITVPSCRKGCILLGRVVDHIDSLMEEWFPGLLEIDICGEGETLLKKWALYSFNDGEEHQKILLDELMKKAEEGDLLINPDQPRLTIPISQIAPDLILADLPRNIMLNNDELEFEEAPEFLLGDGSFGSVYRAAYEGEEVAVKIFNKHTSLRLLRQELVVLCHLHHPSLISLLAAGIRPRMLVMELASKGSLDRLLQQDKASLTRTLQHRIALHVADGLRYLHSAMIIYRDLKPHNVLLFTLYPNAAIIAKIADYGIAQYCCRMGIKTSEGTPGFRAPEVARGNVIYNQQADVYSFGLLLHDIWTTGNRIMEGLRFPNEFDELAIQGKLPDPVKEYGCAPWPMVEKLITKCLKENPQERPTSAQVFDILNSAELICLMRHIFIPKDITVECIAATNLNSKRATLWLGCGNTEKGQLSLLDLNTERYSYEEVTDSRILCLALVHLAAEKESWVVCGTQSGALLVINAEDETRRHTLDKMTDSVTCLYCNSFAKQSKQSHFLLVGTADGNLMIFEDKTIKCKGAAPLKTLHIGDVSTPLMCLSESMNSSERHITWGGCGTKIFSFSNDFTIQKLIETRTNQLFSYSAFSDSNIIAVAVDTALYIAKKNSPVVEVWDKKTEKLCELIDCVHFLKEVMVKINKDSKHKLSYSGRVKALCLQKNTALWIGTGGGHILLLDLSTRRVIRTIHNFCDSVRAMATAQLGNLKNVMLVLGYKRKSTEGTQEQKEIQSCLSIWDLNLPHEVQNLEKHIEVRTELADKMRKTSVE

CNc1nc(Nc2cn(C(C)(C)C#N)nc2C)ncc1C(F)(F)F [LRRK2 Inhibitor B, 2-methyl-2-(3-methyl-4-(4-(methylamino)-5-(trifluoromethyl)pyrimidin-2-ylamino)-1H-pyrazol-1-yl)propanenitrile]
dephosphorylation of pS935-LRRK2 and pT73-Rab10 (LRRK2; rats, 10, 30 or 45 mg/kg daily oral, 10 days, brain and lung): comparable dose-dependent dephosphorylation
pT73-Rab10, Brain (LRRK2; High dose (doses 10, 30, 45 mg/kg), N = 5): 0.225 ± 0.0394
pT73-Rab10, Lung (LRRK2; High dose): 0.109 ± 0.0126
pS935-LRRK2, Brain (LRRK2; High dose): 0.04 ± 0.016
pS935-LRRK2, Lung (LRRK2; High dose): 0.076 ± 0.022
pT73-Rab10, Brain (LRRK2; Low dose (doses 10, 30, 45 mg/kg), N = 6): 0.676 ± 0.102
pT73-Rab10, Lung (LRRK2; Low dose): 0.25 ± 0.0126
pS935-LRRK2, Brain (LRRK2; Low dose): 0.693 ± 0.164
pS935-LRRK2, Lung (LRRK2; Low dose): 0.295 ± 0.026
pT73-Rab10, Brain (LRRK2; Medium dose (doses 10, 30, 45 mg/kg), N = 6): 0.268 ± 0.0745
pT73-Rab10, Lung (LRRK2; Medium dose): 0.133 ± 0.0137
pS935-LRRK2, Brain (LRRK2; Medium dose): 0.086 ± 0.021
pS935-LRRK2, Lung (LRRK2; Medium dose): 0.094 ± 0.012

B1: Clone 5: anti-phosphorylated (pT73) Rab10 rabbit monoclonal antibody; VH SEQ ID NO:1, VL SEQ ID NO:5 (antibody, V domains shown)
VH: METGLRWLLLVAVLKGVQCQSVEESGGRLVTPGTPLTLTCTVSGFSLSSYAMVWVRQAPGKGLEYIGLISRSGVTYYATWAKGRFTISKASTTVDLKIASPTTGDTATYFCVRDYDINGWSGFTIWGPGTLVTVSA
VL: MDTRAPTQLLGLLLWLPGAICDPVMTQTPSSTSAAVGGTVTINCQSSQSVYGNNYFSWYQQKPGQPPKLLIYKASTLASGVPSRFKGSGSGTQFTLTISDLECDDAATYYCAGAASDTRFFGGGTELVVN
detection of endogenous phosphorylated Rab10 signals in human PBMC by western blot [1]: detected endogenous phosphorylated Rab signals
Western blot Human PBMC Ratio of DMSO/LRRK2 inhibitor A (mean ± SEM) [1]: 3.45 ± 0.53
Sandwich ELISA (diagnostic), Ratio [2]: 23.63
Sandwich ELISA (diagnostic) HEK cells overexpressing LRRK2, DMSO (RLU mean ± SD) [2]: 85175 ± 16412 RLU
Sandwich ELISA (diagnostic) HEK cells overexpressing LRRK2, LRRK2 inhibitor A (RLU mean ± SD) [2]: 3604 ± 1165 RLU

B2: Clone 19: anti-phosphorylated (pT73) Rab10 rabbit monoclonal antibody; VH SEQ ID NO:11, VL SEQ ID NO:13 (antibody, V domains shown)
VH: B1 VH with I117S, N118A
VL: MDTRAPTQLLGLLLLWLPGAICDPVMTQTPSSTSAAVGGTVTINCQSSQSVYGNNYLSWYQQKPGQPPKLLIYKASTLASGVPSRSVGSGSGTQFTLTISDLECDDAATYYCAGAASDTRFFGGGTELVVN
detection of endogenous phosphorylated Rab10 signals in human PBMC by western blot [1]: detected endogenous phosphorylated Rab signals
Western blot Human PBMC Ratio of DMSO/LRRK2 inhibitor A (mean ± SEM) [1]: 3.39 ± 0.89

B3: Clone 247-8: anti-phosphorylated (pT73) Rab10 rabbit monoclonal antibody; VH SEQ ID NO:47, VL SEQ ID NO:51 (antibody, V domains shown)
VH: B1 VH with V53G, L68I, V74I, K97R, G104E, Y109F, I117S, N118S, T124N, A136L
VL: MDTRAPTQLLGLLLLWLPGAICDPVMTQTPSSTSAAVGGTVTINCQSSQSVYGNNYLSWFQQKPGQPPKLLIYKASTLASGVPSRFKGSGSGTQFTLTISGVQCDDAATYYCAGAYSDNRVFGGGTEVVVK
Sandwich ELISA (diagnostic), Ratio [2]: 7.20
Sandwich ELISA (diagnostic) HEK cells overexpressing LRRK2, DMSO (RLU mean ± SD) [2]: 13096 ± 1715 RLU
Sandwich ELISA (diagnostic) HEK cells overexpressing LRRK2, LRRK2 inhibitor A (RLU mean ± SD) [2]: 1820 ± 276 RLU

B4: Clone 256-6: anti-phosphorylated (pT73) Rab10 rabbit monoclonal antibody; VH SEQ ID NO:53, VL SEQ ID NO:56 (antibody, V domains shown)
VH: B1 VH with S49N, I117A
VL: B2 VL with S86F, V87K, E103D, L128V, N131K
Sandwich ELISA (diagnostic), Ratio [2]: 77.37
Sandwich ELISA (diagnostic) HEK cells overexpressing LRRK2, DMSO (RLU mean ± SD) [2]: 212085 ± 27432 RLU
Sandwich ELISA (diagnostic) HEK cells overexpressing LRRK2, LRRK2 inhibitor A (RLU mean ± SD) [2]: 2741 ± 309 RLU

B5: Clone 153-2: anti-phosphorylated (pT73) Rab10 rabbit monoclonal antibody; VH SEQ ID NO:39, VL SEQ ID NO:43 (antibody, V domains shown)
VH: METGLRWLLLVAVLKGVQCQSVEESGGRLVTPGTPLTLTCTASGFSLSTYYMSWVRQAPGKGLEWIGIINTGGIVHYANWVRGRFTISKTSTTVDLRITSPTAEDTATYFCARAYSADRLDLWGQGTLVTVSS
VL: MDTRAPTQLLGLLLLWLPGATFAAVLTQTPSPVSAAVGGTVTISCQSSESVYGNNRLSWYQQKPGQPPKLLMYYASTLASGVPSRFRGSGSGTQFTLTISDVQCDDAASYYCLGGYKRDSNNAFGGGTEVVVK
Sandwich ELISA (diagnostic), Ratio [2]: 141.26
Sandwich ELISA (diagnostic) HEK cells overexpressing LRRK2, DMSO (RLU mean ± SD) [2]: 596606 ± 80346 RLU
Sandwich ELISA (diagnostic) HEK cells overexpressing LRRK2, LRRK2 inhibitor A (RLU mean ± SD) [2]: 4223 ± 293 RLU

B6: Clone 133-2: anti-phosphorylated (pT73) Rab10 rabbit monoclonal antibody; VH SEQ ID NO:31, VL SEQ ID NO:35 (antibody, V domains shown)
VH: METGLRWLLLVAVLKGVQCQEQLVESGGGLVQPEGSLTLTCKASGFDLSSHYYMCWVRQAPGKGLEWIVCISNGSGNTYYASWAKGRFTISKTSSTTVTLHMTSLTVADTATYFCARNFGSNYGDAFDPWGPGTLVTVSS
VL: MDTRAPTQLLGLLLLWLPGATFAQVLTQTPSPVSAAVGGTVTISCQSSKSVYSNNYLSWYQQKPGQPPKLLIYSASILASGVPSRFSGSGSGTQFTLTISGVQCDDAATYYCQGSYAGSGWYIGFGGGTEVVVK
Sandwich ELISA (diagnostic), Ratio [2]: 2.25
Sandwich ELISA (diagnostic) HEK cells overexpressing LRRK2, DMSO (RLU mean ± SD) [2]: 18605 ± 4874 RLU
Sandwich ELISA (diagnostic) HEK cells overexpressing LRRK2, LRRK2 inhibitor A (RLU mean ± SD) [2]: 8265 ± 1428 RLU

— US11661461B2, “Phospho-Rab antibodies, assays and methods of use thereof” (Denali Therapeutics Inc., priority 2017, dated 2023)
